Experimental findings from patent publication US20260193293A1, “PEPTIDES CAPABLE OF INHIBITING PROTEIN-PROTEIN INTERACTIONS AT GABAB1A SUBUNIT AND USES THEREOF” (UNIVERSITY OF COPENHAGEN, priority 2022, published 2026) are described below.

In general, Ki refers to a measure of affinity in units of concentration, obtained from inhibition or displacement.

Non-standard residues stand in square brackets, D forms with d. NMeW = CN[C@@H](Cc1c[nH]c2ccccc12)C(=O)O; NMeI = CC[C@H](C)[C@H](NC)C(=O)O; NMeE = CN[C@@H](CCC(=O)O)C(=O)O; NMeD = CN[C@@H](CC(=O)O)C(=O)O; NMeV = CN[C@H](C(=O)O)C(C)C; NMeA = CN[C@@H](C)C(=O)O; Sar = CNCC(=O)O

B1: PW(N-Me-A)… (peptide)
peptide: Ac-PW[NMeA]IVWGPTVSRED-NH2
SMILES: CC[C@H](C)[C@H](NC(=O)[C@H](C)N(C)C(=O)[C@H](Cc1c[nH]c2ccccc12)NC(=O)[C@@H]1CCCN1C(C)=O)C(=O)N[C@H](C(=O)N[C@@H](Cc1c[nH]c2ccccc12)C(=O)NCC(=O)N1CCC[C@H]1C(=O)N[C@H](C(=O)N[C@H](C(=O)N[C@@H](CO)C(=O)N[C@@H](CCCNC(=N)N)C(=O)N[C@@H](CCC(=O)O)C(=O)N[C@@H](CC(=O)O)C(N)=O)C(C)C)[C@@H](C)O)C(C)C
B2: PWAIVW(N-Me-G)PTVSRED (peptide)
peptide: Ac-PWAIVW[Sar]PTVSRED-NH2
SMILES: CC[C@H](C)[C@H](NC(=O)[C@H](C)NC(=O)[C@H](Cc1c[nH]c2ccccc12)NC(=O)[C@@H]1CCCN1C(C)=O)C(=O)N[C@H](C(=O)N[C@@H](Cc1c[nH]c2ccccc12)C(=O)N(C)CC(=O)N1CCC[C@H]1C(=O)N[C@H](C(=O)N[C@H](C(=O)N[C@@H](CO)C(=O)N[C@@H](CCCNC(=N)N)C(=O)N[C@@H](CCC(=O)O)C(=O)N[C@@H](CC(=O)O)C(N)=O)C(C)C)[C@@H](C)O)C(C)C
B3: PWAI(N-Me-V)… (peptide)
peptide: Ac-PWAI[NMeV]WGPTVSRED-NH2
SMILES: CC[C@H](C)[C@H](NC(=O)[C@H](C)NC(=O)[C@H](Cc1c[nH]c2ccccc12)NC(=O)[C@@H]1CCCN1C(C)=O)C(=O)N(C)[C@H](C(=O)N[C@@H](Cc1c[nH]c2ccccc12)C(=O)NCC(=O)N1CCC[C@H]1C(=O)N[C@H](C(=O)N[C@H](C(=O)N[C@@H](CO)C(=O)N[C@@H](CCCNC(=N)N)C(=O)N[C@@H](CCC(=O)O)C(=O)N[C@@H](CC(=O)O)C(N)=O)C(C)C)[C@@H](C)O)C(C)C
B4: PWAIV(N-Me-W)GPTVSRED (peptide)
peptide: Ac-PWAIV[NMeW]GPTVSRED-NH2
SMILES: CC[C@H](C)[C@H](NC(=O)[C@H](C)NC(=O)[C@H](Cc1c[nH]c2ccccc12)NC(=O)[C@@H]1CCCN1C(C)=O)C(=O)N[C@H](C(=O)N(C)[C@@H](Cc1c[nH]c2ccccc12)C(=O)NCC(=O)N1CCC[C@H]1C(=O)N[C@H](C(=O)N[C@H](C(=O)N[C@@H](CO)C(=O)N[C@@H](CCCNC(=N)N)C(=O)N[C@@H](CCC(=O)O)C(=O)N[C@@H](CC(=O)O)C(N)=O)C(C)C)[C@@H](C)O)C(C)C
B5: p… (peptide)
peptide: Ac-[dP]WAIVWGPTVSRED-NH2
SMILES: CC[C@H](C)[C@H](NC(=O)[C@H](C)NC(=O)[C@H](Cc1c[nH]c2ccccc12)NC(=O)[C@H]1CCCN1C(C)=O)C(=O)N[C@H](C(=O)N[C@@H](Cc1c[nH]c2ccccc12)C(=O)NCC(=O)N1CCC[C@H]1C(=O)N[C@H](C(=O)N[C@H](C(=O)N[C@@H](CO)C(=O)N[C@@H](CCCNC(=N)N)C(=O)N[C@@H](CCC(=O)O)C(=O)N[C@@H](CC(=O)O)C(N)=O)C(C)C)[C@@H](C)O)C(C)C
B6: …(N-Me-D)ED (peptide)
peptide: Ac-ETEFIAWGPTG[NMeD]ED-NH2
SMILES: CC[C@H](C)[C@H](NC(=O)[C@H](Cc1ccccc1)NC(=O)[C@H](CCC(=O)O)NC(=O)[C@@H](NC(=O)[C@H](CCC(=O)O)NC(C)=O)[C@@H](C)O)C(=O)N[C@@H](C)C(=O)N[C@@H](Cc1c[nH]c2ccccc12)C(=O)NCC(=O)N1CCC[C@H]1C(=O)N[C@H](C(=O)NCC(=O)N(C)[C@@H](CC(=O)O)C(=O)N[C@@H](CCC(=O)O)C(=O)N[C@@H](CC(=O)O)C(N)=O)[C@@H](C)O
B7: …(N-Me-D) (peptide)
peptide: Ac-ETEFIAWGPTGDE[NMeD]-NH2
SMILES: CC[C@H](C)[C@H](NC(=O)[C@H](Cc1ccccc1)NC(=O)[C@H](CCC(=O)O)NC(=O)[C@@H](NC(=O)[C@H](CCC(=O)O)NC(C)=O)[C@@H](C)O)C(=O)N[C@@H](C)C(=O)N[C@@H](Cc1c[nH]c2ccccc12)C(=O)NCC(=O)N1CCC[C@H]1C(=O)N[C@H](C(=O)NCC(=O)N[C@@H](CC(=O)O)C(=O)N[C@@H](CCC(=O)O)C(=O)N(C)[C@@H](CC(=O)O)C(N)=O)[C@@H](C)O
B8: P(N-Me-W)… (peptide)
peptide: Ac-P[NMeW]AIVWGPTVSRED-NH2
SMILES: CC[C@H](C)[C@H](NC(=O)[C@H](C)NC(=O)[C@H](Cc1c[nH]c2ccccc12)N(C)C(=O)[C@@H]1CCCN1C(C)=O)C(=O)N[C@H](C(=O)N[C@@H](Cc1c[nH]c2ccccc12)C(=O)NCC(=O)N1CCC[C@H]1C(=O)N[C@H](C(=O)N[C@H](C(=O)N[C@@H](CO)C(=O)N[C@@H](CCCNC(=N)N)C(=O)N[C@@H](CCC(=O)O)C(=O)N[C@@H](CC(=O)O)C(N)=O)C(C)C)[C@@H](C)O)C(C)C
B9: …(N-Me-E)D (peptide)
peptide: Ac-ETEFIAWGPTGD[NMeE]D-NH2
SMILES: CC[C@H](C)[C@H](NC(=O)[C@H](Cc1ccccc1)NC(=O)[C@H](CCC(=O)O)NC(=O)[C@@H](NC(=O)[C@H](CCC(=O)O)NC(C)=O)[C@@H](C)O)C(=O)N[C@@H](C)C(=O)N[C@@H](Cc1c[nH]c2ccccc12)C(=O)NCC(=O)N1CCC[C@H]1C(=O)N[C@H](C(=O)NCC(=O)N[C@@H](CC(=O)O)C(=O)N(C)[C@@H](CCC(=O)O)C(=O)N[C@@H](CC(=O)O)C(N)=O)[C@@H](C)O
B10: …(N-Me-G)DED (peptide)
peptide: Ac-ETEFIAWGPT[Sar]DED-NH2
SMILES: CC[C@H](C)[C@H](NC(=O)[C@H](Cc1ccccc1)NC(=O)[C@H](CCC(=O)O)NC(=O)[C@@H](NC(=O)[C@H](CCC(=O)O)NC(C)=O)[C@@H](C)O)C(=O)N[C@@H](C)C(=O)N[C@@H](Cc1c[nH]c2ccccc12)C(=O)NCC(=O)N1CCC[C@H]1C(=O)N[C@H](C(=O)N(C)CC(=O)N[C@@H](CC(=O)O)C(=O)N[C@@H](CCC(=O)O)C(=O)N[C@@H](CC(=O)O)C(N)=O)[C@@H](C)O
B11: PWA(N-Me-I)… (peptide)
peptide: Ac-PWA[NMeI]VWGPTVSRED-NH2
SMILES: CC[C@H](C)[C@@H](C(=O)N[C@H](C(=O)N[C@@H](Cc1c[nH]c2ccccc12)C(=O)NCC(=O)N1CCC[C@H]1C(=O)N[C@H](C(=O)N[C@H](C(=O)N[C@@H](CO)C(=O)N[C@@H](CCCNC(=N)N)C(=O)N[C@@H](CCC(=O)O)C(=O)N[C@@H](CC(=O)O)C(N)=O)C(C)C)[C@@H](C)O)C(C)C)N(C)C(=O)[C@H](C)NC(=O)[C@H](Cc1c[nH]c2ccccc12)NC(=O)[C@@H]1CCCN1C(C)=O

The target in this assay is Sushi domains (SD1/2) protein of the GABAB1a (GB1a) subunit, recombinant. Description: FP competition.
Sequence of Sushi domains (SD1/2) protein of the GABAB1a (GB1a) subunit, recombinant (Q9Z0U4 29-158): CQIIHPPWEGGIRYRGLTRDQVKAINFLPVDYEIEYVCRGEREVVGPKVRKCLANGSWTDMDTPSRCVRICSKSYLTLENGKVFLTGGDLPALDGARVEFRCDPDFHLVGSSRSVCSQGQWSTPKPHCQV
With Ac-PWAIVWGPAVSRED-NH2, the Ki turned out to be 1030 nM. Regarding B1, the inhibition constant (Ki) is 7230 nM. With B2, the Ki is 58300 nM. Regarding B3, the Ki came to 7000 nM. For Ac-P[dW]AIVWGPTVSRED-NH2 [Pw…], the Ki was 1230 nM. B4: the Ki worked out at 636 nM. Regarding Ac-PWAIVWGPTVARED-NH2, the Ki was determined as 480 nM. With Ac-AWAIVWGPTVSRED-NH2, the Ki was determined as 552 nM.

Turning to B5, the Ki is 555 nM. As for B6, the figure is 45 nM; as for B7, 29 nM; as for B8, 833 nM. As for Ac-PWAIVWG[dP]TVSRED-NH2 [PWAIVWGpTVSRED], the figure is 6860 nM; as for Ac-PWAAVWGPTVSRED-NH2, 46600 nM; as for B9, 31 nM. For Ac-PWAIVWGPTVSRAD-NH2, the Ki is 600 nM.

Ac-PWAIVWGPTVS[dR]ED-NH2 […rED]: the inhibition constant (Ki) worked out at 605 nM.

Ac-PWAIVWGPTASRED-NH2: the inhibition constant Ki was 318 nM. The result for B10 reads 132 nM; that for Ac-PWAIVWGPTV[dS]RED-NH2 […sRED], 552 nM. As for Ac-PW[dA]IVWGPTVSRED-NH2 [PWa…], the figure is 14100 nM; as for Ac-PAAIVWGPTVSRED-NH2, 911 nM; as for Ac-PWAIVWGPT[dV]SRED-NH2 […vSRED], 686 nM. As for Ac-PWAIVW[dA]PTVSRED-NH2 [PWAIVWaPTVSRED], the figure is 18100 nM; as for Ac-PWAIVWGP[dT]VSRED-NH2 [PWAIVWGPtVSRED], 1300 nM.

Ac-PWAIVWGPTVSREA-NH2: the Ki worked out at 572 nM. Ac-PWAIVWAPTVSRED-NH2: the Ki was found to be 877 nM.

For the molecule B11, the Ki was 370 nM. Consider Ac-PWAIVWGATVSRED-NH2, for which the inhibitory constant (Ki) came out at 1500 nM. For the molecule Ac-PWAIVWGPTVSAED-NH2, the Ki worked out at 341 nM.
